{"source": "paper PMC13082707", "about": "“Role of the C-terminal modules of Klebsiella phage KP32 receptor-binding protein gp38 in protein and phage functionality” (PLOS Pathogens, 2026)", "molecules": {"B1": {"name": "KP32gp38_WT, receptor-binding protein 2 (RBP2) of Klebsiella phage KP32 (natural protein, UniProt D1L2X1 1-576, looked up)", "chain": "MLDNFNQPKGSTIGVLKDGRTIQEAFDSLPRLESFSGSTATDKLRAAITLGVSEVAIGPVEGNGGRPYEFGDVVIPYPLRIVGCGSQGINVTKGTVLKRSAGASFMFHFTGEGQAQRPMGGGLFNINLNGDTATALGDIIKVTQWSYFKANNCAFQNMAGWGIRLKDVMESNISGNLFRRLGGPSGGGILFDDVRSAVTDNVNNLHIEDNTFALMSGPWIGSTANSNPDLIWIVRNKFEFDGTPAAPNTVDSYVLDFQQLSRAFIQDNGFTHFTTERNRYVGVLRVGATAVGTIKFEDNLLFACESAGLIAGGIVVSRGNVNNQGSATTAIKQFTNTSSKLCKLERVINVQSNGNVSVGQQILPDGYINMAELPGNTRLPSEYDADGETTSVLRVPANTQVRQWSVPKMYKDGLTVTKVTVRAKGAAAGAILSLQSGSTVLSTKSIDAGVWKNYVFYVKANQLQETLQLRNTGTADVLADGMVFGKVDYIDWDFAIAPGTLAAGAKYTTPNQSYLDVAGMRVQAVSIPMFDGPTTGLQVWVEATSANGSFVVVMKNDTGSELVTTVTRCRVRAFVS", "notes": "KP32gp38 (RBP2, capsule depolymerase/tailspike) of Klebsiella phage KP32; domains CP-E-LIN-CBM-LEC; Expressed from pVTD3 (C-terminal His-tag); also called KP32gp38 WT depolymerase; source: E. coli BL21(DE3), purified (His GraviTrap or HisPur Ni-NTA)"}}, "key": {"[1]": {"biological_target": "GFP_KP32gp38_LIN-CBM-LEC (Klebsiella phage KP32)", "assay": "SEC-MALS; SEC-MALLS of selected KP32gp38 variants to assess the molecular weight of their oligomeric state, buffer and concentrations not told"}, "[2]": {"biological_target": "KP32gp38_ΔCBM (Klebsiella phage KP32)", "assay": "SEC-MALS; SEC-MALLS of selected KP32gp38 variants to assess the molecular weight of their oligomeric state, buffer and concentrations not told"}, "[3]": {"biological_target": "KP32gp38_CP-E-LIN_K11gp0043_CBM-LEC (Klebsiella phage KP32 | Klebsiella phage K11)", "assay": "SEC-MALS; SEC-MALLS of selected KP32gp38 variants to assess the molecular weight of their oligomeric state, buffer and concentrations not told"}, "[4]": {"biological_target": "KP32gp38_ΔLEC (Klebsiella phage KP32)", "assay": "SEC-MALS; SEC-MALLS of selected KP32gp38 variants to assess the molecular weight of their oligomeric state, buffer and concentrations not told"}, "[5]": {"biological_target": "KP32gp38_ΔLEC (Klebsiella phage KP32)"}, "[6]": {"biological_target": "KP32gp38_Δ(LIN-CBM) (Klebsiella phage KP32)", "assay": "SEC-MALS; SEC-MALLS of selected KP32gp38 variants to assess the molecular weight of their oligomeric state, buffer and concentrations not told"}, "[7]": {"biological_target": "KP32gp38_LIN-CBM-LEC (Klebsiella phage KP32)", "assay": "SEC-MALS; SEC-MALLS of selected KP32gp38 variants to assess the molecular weight of their oligomeric state, buffer and concentrations not told"}, "[8]": {"biological_target": "KP32gp38_CP-E_K11gp0043_LIN-CBM-LEC (Klebsiella phage KP32 | Klebsiella phage K11)", "assay": "SEC-MALS; SEC-MALLS of selected KP32gp38 variants to assess the molecular weight of their oligomeric state, buffer and concentrations not told"}, "[9]": {"biological_target": "KP32gp38_LEC (Klebsiella phage KP32)", "assay": "SEC-MALS; SEC-MALLS of selected KP32gp38 variants to assess the molecular weight of their oligomeric state, buffer and concentrations not told"}, "[10]": {"biological_target": "the molecule itself", "assay": "SEC-MALS; SEC-MALLS of selected KP32gp38 variants to assess the molecular weight of their oligomeric state, buffer and concentrations not told"}}, "data": [{"molecule": "GFP_KP32gp38_LIN-CBM-LEC (domain or fragment)", "values": [{"measurement": "stoichiometry N", "setting": "[1]", "result": 3}]}, {"molecule": "KP32gp38_ΔCBM (domain or fragment)", "values": [{"measurement": "stoichiometry N", "setting": "[2]", "result": 3}]}, {"molecule": "KP32gp38_CP-E-LIN_K11gp0043_CBM-LEC", "values": [{"measurement": "stoichiometry N", "setting": "[3]", "result": 3}]}, {"molecule": "KP32gp38_ΔLEC (domain or fragment)", "values": [{"measurement": "percent dimers", "setting": "[4]", "result": 10, "unit": "%"}, {"measurement": "stoichiometry N", "setting": "[4]", "result": 2}, {"measurement": "enzymatic activity (halo formation on K21/KL163 lawns) compared to the WT", "setting": "[5]", "result": 1000, "unit": "fold"}]}, {"molecule": "KP32gp38_Δ(LIN-CBM) (domain or fragment)", "values": [{"measurement": "stoichiometry N", "setting": "[6]", "result": 3}]}, {"molecule": "KP32gp38_LIN-CBM-LEC (domain or fragment)", "values": [{"measurement": "stoichiometry N", "setting": "[7]", "result": 3}]}, {"molecule": "KP32gp38_CP-E_K11gp0043_LIN-CBM-LEC", "values": [{"measurement": "stoichiometry N", "setting": "[8]", "result": 3}]}, {"molecule": "KP32gp38_LEC (domain or fragment)", "values": [{"measurement": "stoichiometry N", "setting": "[9]", "result": "> 25"}]}, {"molecule": "B1", "values": [{"measurement": "stoichiometry N", "setting": "[10]", "result": 3}]}]}
